Experimental findings from patent publication US20070225231A1 are described below.

The target of assay [1] is peroxidase-anti-peroxidase (PAP) immune complexes (UniProt P00433). Description: reverse ELISA: rabbit PAP pre-incubated with soluble histone; competitor: immobilised histone. Background: In an ELISA, binding on a coated surface is turned into a signal by an enzyme label.
For assay [2], the target named is human C1q (human) (UniProt P02745). Description: reverse ELISA: PAP on C1q-coated plate, no inhibitor.
Sequence of human C1q (human) (P02745 23-245 limits assumed, chain 1 of 3): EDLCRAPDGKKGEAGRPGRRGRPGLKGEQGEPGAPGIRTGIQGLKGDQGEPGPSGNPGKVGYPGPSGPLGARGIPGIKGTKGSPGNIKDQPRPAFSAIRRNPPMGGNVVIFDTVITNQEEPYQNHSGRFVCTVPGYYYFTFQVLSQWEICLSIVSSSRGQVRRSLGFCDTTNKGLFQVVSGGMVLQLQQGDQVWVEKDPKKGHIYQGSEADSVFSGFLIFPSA
Sequence of human C1q (human) (P02746 28-253 limits assumed, chain 2 of 3, further chain): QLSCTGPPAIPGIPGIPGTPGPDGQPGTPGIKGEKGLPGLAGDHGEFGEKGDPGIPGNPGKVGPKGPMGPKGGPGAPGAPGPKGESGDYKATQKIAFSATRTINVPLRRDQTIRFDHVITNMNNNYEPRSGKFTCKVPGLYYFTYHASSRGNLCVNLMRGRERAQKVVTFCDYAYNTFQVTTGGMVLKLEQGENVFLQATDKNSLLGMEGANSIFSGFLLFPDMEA
Sequence of human C1q (human) (P02747 29-245 limits assumed, chain 3 of 3, further chain): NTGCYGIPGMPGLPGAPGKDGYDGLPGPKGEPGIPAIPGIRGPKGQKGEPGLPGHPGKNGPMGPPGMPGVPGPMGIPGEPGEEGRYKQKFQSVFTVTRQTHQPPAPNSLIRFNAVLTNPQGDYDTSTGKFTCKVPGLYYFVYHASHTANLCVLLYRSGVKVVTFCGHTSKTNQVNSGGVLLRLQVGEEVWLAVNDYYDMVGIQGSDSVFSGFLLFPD
In assay [3] the target is whole human IgG4 (human) [IgG part: P01861]. Briefly: reverse ELISA: immune complexes on IgG4-coated plate, no inhibitor.
Sequence of whole human IgG4 (human) [IgG part: P01861] (P01861 other isoform, or with tags, fused parts or gaps): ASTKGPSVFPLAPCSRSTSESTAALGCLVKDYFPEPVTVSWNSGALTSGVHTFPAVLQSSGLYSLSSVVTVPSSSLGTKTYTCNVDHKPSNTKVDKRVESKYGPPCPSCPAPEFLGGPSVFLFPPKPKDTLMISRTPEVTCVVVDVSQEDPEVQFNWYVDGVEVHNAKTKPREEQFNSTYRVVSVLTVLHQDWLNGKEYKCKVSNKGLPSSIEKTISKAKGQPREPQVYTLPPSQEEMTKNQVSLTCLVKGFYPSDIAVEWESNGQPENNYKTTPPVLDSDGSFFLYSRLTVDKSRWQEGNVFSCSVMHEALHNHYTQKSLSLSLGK
The target in another assay is highly purified FcγIIb (UniProt P31994). Description: reverse ELISA: PAP on FcγIIb-coated plate, no inhibitor.
Sequence of highly purified FcγIIb (P31994 43-217 limits assumed): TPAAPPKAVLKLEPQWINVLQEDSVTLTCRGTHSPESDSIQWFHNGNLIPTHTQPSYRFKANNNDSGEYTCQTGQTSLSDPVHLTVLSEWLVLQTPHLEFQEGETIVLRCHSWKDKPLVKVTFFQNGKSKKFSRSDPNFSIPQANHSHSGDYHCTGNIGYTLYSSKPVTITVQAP
Assay [4] has as its target histone (Sigma). Description: reverse ELISA: IgG PAP binding to histones, no inhibitor.
Assay [5] has as its target histone (Sigma). Description: reverse ELISA: rabbit PAP on histone-coated plate, no inhibitor.
The target in another assay is highly purified FcγIIa (UniProt P12318). Briefly: reverse ELISA: PAP on FcγIIa-coated plate, no inhibitor.
Sequence of highly purified FcγIIa (P12318 34-217 limits assumed): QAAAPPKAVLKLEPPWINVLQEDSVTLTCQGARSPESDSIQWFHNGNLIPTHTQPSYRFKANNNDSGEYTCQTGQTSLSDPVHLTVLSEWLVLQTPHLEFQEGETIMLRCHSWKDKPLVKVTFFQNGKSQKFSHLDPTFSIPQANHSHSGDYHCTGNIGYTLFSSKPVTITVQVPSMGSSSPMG
The target of assay [6] is human C1q (human) (UniProt P02745). Briefly: reverse ELISA: PAP on C1q-coated plate, no inhibitor. The source holds these as a separate data set.
The next assay has as its target highly purified FcγIII. Briefly: reverse ELISA: PAP on FcγIII-coated plate, no inhibitor.
Assay [7] concerns the target myelin basic protein (MBP) (Sigma). Description: reverse ELISA: rabbit PAP on MBP-coated plate, no inhibitor.
Assay [8] shares this target. Description: reverse ELISA: IgG PAP binding to MBP, no inhibitor.
Assay [9] addresses peroxidase-anti-peroxidase (PAP) immune complexes (UniProt P00433). Description: reverse ELISA: rabbit PAP pre-incubated with soluble MBP; competitor: immobilised MBP.
For assay [10] the target is unchanged. Description: reverse ELISA: immune complexes with peptide; competitor: immobilised IgG4.
Assay [11] has the same target. Description: reverse ELISA: PAP pre-incubated with peptide; competitor: immobilised FcγIIa.
Assay [12] deals with human monomeric IgG (Research Diagnostics). Briefly: RF test kit: peptide pre-incubated with human monomeric IgG, washed, then RF; competitor: RF.
Assay [13] concerns the target peroxidase-anti-peroxidase (PAP) immune complexes (UniProt P00433). Description: reverse ELISA: PAP pre-incubated with peptide, then on C1q-coated plate; competitor: immobilised C1q.
Assay [14] has the same target. Briefly: reverse ELISA: PAP pre-incubated with peptide; competitor: immobilised FcγIII.
For assay [15] the target is unchanged. Briefly: reverse ELISA: PAP pre-incubated with peptide; competitor: immobilised FcγIIb.
Assay [16] shares this target. Description: reverse ELISA: PAP pre-incubated with peptide; competitor: immobilised RF.
The target is the same in assay [17]. Description: reverse ELISA: rabbit PAP pre-incubated with peptide; competitor: immobilised histone.
Assay [18] shares this target. Briefly: reverse ELISA: rabbit PAP pre-incubated with peptide; competitor: immobilised MBP.
For assay [19] the target is unchanged. Description: reverse ELISA: PAP pre-incubated with peptide; competitor: immobilised C1q.
The target is the same in assay [20]. Briefly: reverse ELISA: rabbit PAP pre-incubated with peptide; competitor: immobilised RF.

Read-outs that look alike come from different tables or passages of the source. Positions of bridges follow the written chain, without caps; N, C: chain ends. No end group written: not given here.

Sequence of peroxidase-anti-peroxidase (PAP) immune complexes (UniProt P00433) (P00433 31-338, one chain of several): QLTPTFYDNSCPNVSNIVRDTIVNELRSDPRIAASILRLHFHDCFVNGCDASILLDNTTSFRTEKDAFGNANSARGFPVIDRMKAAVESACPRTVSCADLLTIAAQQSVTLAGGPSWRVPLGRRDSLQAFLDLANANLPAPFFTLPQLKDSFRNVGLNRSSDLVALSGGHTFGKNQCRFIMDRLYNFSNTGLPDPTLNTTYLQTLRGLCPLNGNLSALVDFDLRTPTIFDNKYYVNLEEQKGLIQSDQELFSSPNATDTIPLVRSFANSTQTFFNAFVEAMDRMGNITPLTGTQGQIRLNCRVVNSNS

In [1], histone (Sigma) showed an OD 405 nm of 0.057 OD.

Take “peroxidase-anti-peroxidase (PAP) immune complexes (from UniProt P00433 31-338)”: the OD 405 nm was 0.467 OD with human C1q (human) [2]; 0.716 OD in [3]; 1.39 OD in the assay with highly purified FcγIIb; 2.11 OD with histone (Sigma) [4]; 1.27 OD with histone (Sigma) [5]; 1.6 OD in the assay with highly purified FcγIIa. The OD 405 nm was 2.35 OD with human C1q (human) [6], 1.59 OD in the assay with highly purified FcγIII, 1.03 OD in assay [7] and 2.34 OD in [8]. The OD 450 nm in the assay with highly purified FcγIIb, with highly purified FcγIIa and with highly purified FcγIII was 3.6 OD each time.

With myelin basic protein (MBP) (Sigma), in assay [9], the OD 405 nm turned out to be 0.139 OD.

In turn, APPDCARHLGELVWCT (cyclized by a disulfide bond between the two cysteine residues) [… (printed in Table 8 with SEQ ID NO:14)] came in with an OD 405 nm in [10] of 0.107 OD.

Consider DCAAHLGELAACT (cyclized by a disulfide bond between the two cysteine residues) [… (SEQ ID NO:40)], for which the OD 450 nm in assay [11] amounted to 2.43 OD; in assay [14], 2.41 OD; in assay [15], 2.26 OD. The OD 405 nm was 1.42 OD in assay [12] and 0.458 OD in assay [13].

As for RCARHLGELVWCT (disulfide 2-12 (inferred)) [… (SEQ ID NO:5)], the values for the OD 450 nm in [11], in [14] and in assay [15] were 3.4 OD, 3.5 OD and 3.28 OD, respectively. For the same molecule, the OD 405 nm was found to be 1.31 OD in assay [12]; 0.247 OD in assay [13]; 0.152 OD in assay [16]; 0.359 OD in assay [17]; 0.569 OD in assay [18]; 0.191 OD in assay [10].

With PCARHLGELVWCT (disulfide 2-12 (inferred)) [… (SEQ ID NO:41)], the OD 450 nm came out at 1.15 OD in assay [11], 1.6 OD in assay [14] and 1.21 OD in assay [15]. For the same molecule, the OD 405 nm in assay [12] amounted to 1.32 OD; in [13], 0.205 OD; in assay [16], 0.106 OD; in [17] it was 0.444 OD; in assay [18], 0.489 OD; in assay [10], 0.129 OD.

DCAWHLGELAACT (cyclized by a disulfide bond between the two cysteine residues) [… (SEQ ID NO:42)]: the results for the OD 450 nm in assay [11], in assay [14] and in [15] were 1.48 OD, 1.34 OD and 1.07 OD, respectively. For the same molecule, the OD 405 nm is 1.4 OD in assay [12]; 0.622 OD in assay [16]; 0.729 OD in assay [17]; 0.706 OD in [18]; 0.557 OD in assay [10].

For DCAFHLGELVWCT (cyclized by a disulfide bond between the two cysteine residues) [… (SEQ ID NO:3)], the OD 405 nm was determined as 0.66 OD in assay [11]; 0.859 OD in assay [19]; 0.267 OD in assay [20]; 0.962 OD in assay [12]; 0.81 OD in [14]; 0.51 OD in [15].

With DCARHLGELVWCT (disulfide 2-12 (inferred)) [… (SEQ ID NO:4)], the OD 450 nm in assay [11] is 2.54 OD; in assay [14], 2.53 OD; in assay [15] it was 1.95 OD. Further, the OD 405 nm in assay [12] was found to be 1.23 OD; in [13] it was 0.193 OD; in assay [16] it was 0.109 OD; in assay [17] it was 0.363 OD; in assay [18], 0.473 OD; in [10], 0.096 OD.
